Sequences and labels used below:
B1: SNX8 (parent)
chain: RMVPALPPKRMLGADREFIEARRR
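Note: lentivirally expressed fusions sorted by FACS into six bins by GFP to DsRed ratio, PSI derived from sequencing read proportions per bin multiplied by bin number.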

Variants of B1 are the subject of this data set. Description: protein stability index of a GFP-peptide fusion (GPS, HEK-293T) (PSI 1-6); higher = more stable. Particulars: c terminus: a fixed tail appended.
For RMVPALPPKRMLGADPEFIEARRR [R16P], the protein stability index was found to be 4.33. On to RMVPALPPKRMLGADCEFIEARRR [R16C], for which the protein stability index amounted to 3.53.

In the case of RMVPALPPKRMLGADSEFIEARRR [R16S], the protein stability index turned out to be 3.91. Under RMVPALPPKRMLGADLEFIEARRR [R16L] stands 2.65; under RMVPALPPKRMLGADIEFIEARRR [R16I], 2.78. Under RMVPALPPKRMLGADVEFIEARRR [R16V] stands 3.62.

Consider RMVPALPPKRMLGADMEFIEARRR [R16M], for which the protein stability index was 3.55. Under RMVPALPPKRMLGADTEFIEARRR [R16T] stands 3.56; under RMVPALPPKRMLGADEEFIEARRR [R16E], 4.41; under RMVPALPPKRMLGADNEFIEARRR [R16N], 4.39.

For the variant RMVPALPPKRMLGADAEFIEARRR [R16A], the protein stability index was 4.04. Under RMVPALPPKRMLGADGEFIEARRR [R16G] stands 3.88. Regarding RMVPALPPKRMLGADYEFIEARRR [R16Y], the protein stability index was 2.08. The result for RMVPALPPKRMLGADKEFIEARRR [R16K] reads 3.71; that for RMVPALPPKRMLGADFEFIEARRR [R16F], 1.96. The result for RMVPALPPKRMLGADHEFIEARRR [R16H] reads 3.67; that for RMVPALPPKRMLGADWEFIEARRR [R16W], 2.42. Under RMVPALPPKRMLGADDEFIEARRR [R16D] stands 4.07. In the case of RMVPALPPKRMLGADREIIEARRR [F18I], the protein stability index is 3.85. The result for RMVPALPPKRMLGADREHIEARRR [F18H] reads 4.18; that for RMVPALPPKRMLGADREDIEARRR [F18D], 4.08; that for RMVPALPPKRMLGADREEIEARRR [F18E], 4.43. As for RMVPALPPKRMLGADRECIEARRR [F18C], the protein stability index amounted to 4.45. The result for RMVPALPPKRMLGADRELIEARRR [F18L] reads 3.84; that for RMVPALPPKRMLGADREAIEARRR [F18A], 3.56; that for RMVPALPPKRMLGADREGIEARRR [F18G], 4.57. The result for RMVPALPPKRMLGADREKIEARRR [F18K] reads 4.26. Under RMVPALPPKRMLGANREFIEARRR [D15N] stands 3.43; under RMVPALPPKRMLGAFREFIEARRR [D15F], 1.99. With RMVPALPPKRMLGALREFIEARRR [D15L], the protein stability index is 1.52. Under RMVPALPPKRMLGAAREFIEARRR [D15A] stands 2.77; under RMVPALPPKRMLGAVREFIEARRR [D15V], 2.15; under RMVPALPPKRMLGAQREFIEARRR [D15Q], 3.93. Regarding RMVPALPPKRMLGAEREFIEARRR [D15E], the protein stability index was determined as 3.52. The result for RMVPALPPKRMLGAHREFIEARRR [D15H] reads 3.22; that for RMVPALPPKRMLGASREFIEARRR [D15S], 3.77; that for RMVPALPPKRMLGACREFIEARRR [D15C], 2.42. Under RMVPALPPKRMLGAMREFIEARRR [D15M] stands 1.56; under RMVPALPPKRMLGAKREFIEARRR [D15K], 3.16. The result for RMVPALPPKRMLGAIREFIEARRR [D15I] reads 1.91; that for RMVPALPPKRMLGAPREFIEARRR [D15P], 4.16. Regarding RMVPALPPKRMLGAYREFIEARRR [D15Y], the protein stability index turned out to be 2.64. The result for RMVPALPPKRMLGAGREFIEARRR [D15G] reads 3.98. The result for RMVPALPPKRMLGAWREFIEARRR [D15W] reads 2.5; that for RMVPALPPKRMLGATREFIEARRR [D15T], 3.69. Under RMVPALPPKRMLGCDREFIEARRR [A14C] stands 3.52; under RMVPALPPKRMLGRDREFIEARRR [A14R], 3.73; under RMVPALPPKRMLGGDREFIEARRR [A14G], 3.96. As for RMVPALPPKRMLGTDREFIEARRR [A14T], the protein stability index was determined as 3.63. The result for RMVPALPPKRMLGEDREFIEARRR [A14E] reads 4.34; that for RMVPALPPKRMLGFDREFIEARRR [A14F], 3.37; that for RMVPALPPKRMLGKDREFIEARRR [A14K], 3.84. Under RMVPALPPKRMLGDDREFIEARRR [A14D] stands 4.19. In the case of RMVPALPPKRMLGWDREFIEARRR [A14W], the protein stability index came out at 2.51. The result for RMVPALPPKRMLGSDREFIEARRR [A14S] reads 3.9; that for RMVPALPPKRMLGLDREFIEARRR [A14L], 3.55. The result for RMVPALPPKRMLGNDREFIEARRR [A14N] reads 4.72. The result for RMVPALPPKRMLGMDREFIEARRR [A14M] reads 3.24. Turning to RMVPALPPKRMLGVDREFIEARRR [A14V], the protein stability index came out at 3.02. Under RMVPALPPKRMLGIDREFIEARRR [A14I] stands 3.54; under RMVPALPPKRMLGPDREFIEARRR [A14P], 4.

As for RMVPALPPKRMLGHDREFIEARRR [A14H], the protein stability index stood at 3.71. RMVPALPPKRMLGQDREFIEARRR [A14Q]: the protein stability index is 3.81. The result for RMVPALPPKRMLGYDREFIEARRR [A14Y] reads 2.88. Under RMVPALPPKRMLNADREFIEARRR [G13N] stands 3.29; under RMVPALPPKRMLWADREFIEARRR [G13W], 2.17. The result for RMVPALPPKRMLRADREFIEARRR [G13R] reads 4.06. Take RMVPALPPKRMLLADREFIEARRR [G13L]: the protein stability index was 2.69. Under RMVPALPPKRMLPADREFIEARRR [G13P] stands 2.83; under RMVPALPPKRMLSADREFIEARRR [G13S], 3.54.

Consider RMVPALPPKRMLMADREFIEARRR [G13M], for which the protein stability index is 2.43. In the case of RMVPALPPKRMLYADREFIEARRR [G13Y], the protein stability index came out at 3.13. The result for RMVPALPPKRMLTADREFIEARRR [G13T] reads 3.14; that for RMVPALPPKRMLQADREFIEARRR [G13Q], 3.25. Under RMVPALPPKRMLVADREFIEARRR [G13V] stands 2.54; under RMVPALPPKRMLGADRPFIEARRR [E17P], 4.09; under RMVPALPPKRMLGADRDFIEARRR [E17D], 3.67. The result for RMVPALPPKRMLGADRVFIEARRR [E17V] reads 2.81; that for RMVPALPPKRMLGADRCFIEARRR [E17C], 3.61. RMVPALPPKRMLGADRGFIEARRR [E17G]: the protein stability index is 3.97. Under RMVPALPPKRMLGADRNFIEARRR [E17N] stands 4. On to RMVPALPPKRMLGADRAFIEARRR [E17A], for which the protein stability index stood at 3.55. The result for RMVPALPPKRMLGADRHFIEARRR [E17H] reads 3.45; that for RMVPALPPKRMLGADRWFIEARRR [E17W], 2.19.

With RMVPALPPKRMLGADRLFIEARRR [E17L], the protein stability index was determined as 3.37. Turning to RMVPALPPKRMLGADRRFIEARRR [E17R], the protein stability index stood at 4.1. Under RMVPALPPKRMLGADRIFIEARRR [E17I] stands 2.64. For RMVPALPPKRMLGADRQFIEARRR [E17Q], the protein stability index came out at 3.34. The result for RMVPALPPKRMLGADRYFIEARRR [E17Y] reads 3.21; that for RMVPALPPKRMLGADRMFIEARRR [E17M], 2.38; that for RMVPALPPKRMLGADRKFIEARRR [E17K], 4.19. Under RMVPALPPKRMLGADRTFIEARRR [E17T] stands 3.55.

On to RMVPALPPKRMLGADRFFIEARRR [E17F], for which the protein stability index was 2.08. The result for RMVPALPPKRMLGADRSFIEARRR [E17S] reads 3.87.

The values are drawn from the supplement of paper PMC10567573.
